Test results reported in the supplement of paper PMC9233669.
Variants at the floor of the assay were thinned out.

Legend:
biotinyl-Phe-oxazolone = assay: self-aminoacylation, catalytic enhancement (BFO) (fold over background); higher = more active; k-Seq, kA / k0A0; sequences stand for … in GGGAAUGGAUCCACAUCUACGAAUUC…UUCACUGCAGACUUGACGAAGCUG
Summary of the method: (§1)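 Working in 50 μL HEPES/NaCl/KCl/MgCl2/CaCl2 buffer with 5% acetonitrile at pH 6.9–7.0, mutagenized RNA pools (0.43 μM; 21-nt variable region) were reacted with 2–1250 μM of each biotinyl-aminoacyl-oxazolone for 90 minutes at room temperature. Streptavidin capture followed, with quantification by triplicate qPCR and Illumina sequencing. Catalytic enhancement is reported as median kA over the uncatalyzed rate, the low-activity peak of a bimodal Gaussian fit to the data.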

biotinyl-Leu-oxazolone = assay: self-aminoacylation, catalytic enhancement (BLO) (fold over background); higher = more active; k-Seq, kA / k0A0; sequences stand for … in GGGAAUGGAUCCACAUCUACGAAUUC…UUCACUGCAGACUUGACGAAGCUG
Summary of the method: as §1

biotinyl-Ile-oxazolone = assay: self-aminoacylation, catalytic enhancement (BIO) (fold over background); higher = more active; k-Seq, kA / k0A0; sequences stand for … in GGGAAUGGAUCCACAUCUACGAAUUC…UUCACUGCAGACUUGACGAAGCUG
Summary of the method: as §1

biotinyl-Trp-oxazolone = assay: self-aminoacylation, catalytic enhancement (BWO) (fold over background); higher = more active; k-Seq, kA / k0A0; sequences stand for … in GGGAAUGGAUCCACAUCUACGAAUUC…UUCACUGCAGACUUGACGAAGCUG
Summary of the method: as §1

biotinyl-Met-oxazolone = assay: self-aminoacylation, catalytic enhancement (BMO) (fold over background); higher = more active; k-Seq, kA / k0A0; sequences stand for … in GGGAAUGGAUCCACAUCUACGAAUUC…UUCACUGCAGACUUGACGAAGCUG
Summary of the method: as §1

biotinyl-Val-oxazolone = assay: self-aminoacylation, catalytic enhancement (BVO) (fold over background); higher = more active; k-Seq, kA / k0A0; sequences stand for … in GGGAAUGGAUCCACAUCUACGAAUUC…UUCACUGCAGACUUGACGAAGCUG
Summary of the method: as §1

Row | Sequence | self-aminoacylation (biotinyl-Phe-oxazolone) | self-aminoacylation (biotinyl-Leu-oxazolone) | self-aminoacylation (biotinyl-Ile-oxazolone) | self-aminoacylation (biotinyl-Trp-oxazolone) | self-aminoacylation (biotinyl-Met-oxazolone) | self-aminoacylation (biotinyl-Val-oxazolone)
1 | AUCCACCUAGGUCCUCGGGUG [Fam2.2 aminoacylation ribozyme variant] | 31.1 | 6.47 | 3.76 | 6.83 | 6.2 | 4.71
2 | CUAAUUCAAACAAACGGUCUG [Fam1A.1 aminoacylation ribozyme variant] | 0.687 | 0.561 | 0.823 | 0.543 | 0.616 | 0.917
3 | AUUGCCCUGGUCCUCGAGUGA [Fam2.1 aminoacylation ribozyme variant] | 23.4 | 3.42 | 1.94 | 3.66 | 3.5 | 2.05
4 | AUUCACCUAGGUCAACGGUUG [Fam2.2 aminoacylation ribozyme variant] | 1.03 | 0.71 | 0.852 | 0.94 | 0.808 | 0.808
5 | AUUACCCCGGUCAUCGAGGGA [Fam2.1 aminoacylation ribozyme variant] | 2.68 | 1.07 | 1.15 | 1.67 | 1.21 | 1.93
6 | AUGUUUGCUAAUAGUCGCAAC [Fam3.1 aminoacylation ribozyme variant] | 1.82 | 1.04 | 1.15 | 1.08 | 1.05 | 1.05
7 | AGUACGCUGGUCAUCGAGUGA [Fam2.1 aminoacylation ribozyme variant] | 14.4 | 4.19 | 3.17 | 5.19 | 2.82 | 3.21
8 | AAGUUUGCUAAUAGUAGCCAG [Fam3.1 aminoacylation ribozyme variant] | 1.04 | 0.78 | 0.868 | 2.24 | 0.77 | 0.769
9 | AAUACCCUGGUCAUCCAGUGA [Fam2.1 aminoacylation ribozyme variant] | 10.6 | 4.96 | 3.01 | 5.84 | 5.25 | 2.88
10 | GUUCACCUAGGUCAUUGGGUG [Fam2.2 aminoacylation ribozyme variant] | 8.92 | 2.83 | 2.6 | 3.8 | 2.21 | 2.27
11 | AAGUUUGCUAGUAAUCGCAAG [Fam3.1 aminoacylation ribozyme variant] | 0.961 | 0.733 | 0.761 | 0.849 | 0.789 | 0.819
12 | AAUCACCUAUGUCAUCGGGUG [Fam2.2 aminoacylation ribozyme variant] | 23.4 | 4.9 | 3.28 | 6.14 | 4.23 | 3.29
13 | AUUACACUGGUCAUCGGGUGA [Fam2.1 aminoacylation ribozyme variant] | 59.4 | 9.65 | 5.02 | 9.23 | 9.88 | 5.51
14 | AUUGCCCUAGGUCAUCGGGUG [Fam2.2 aminoacylation ribozyme variant] | 62.7 | 11.8 | 5.44 | 7.92 | 8.34 | 5.7
15 | CCGCACUUCAAGCACUCGGUC [Fam1B.1 aminoacylation ribozyme variant] | 1.93 | 1.64 | 1.38 | 1.55 | 1.44 | 1.79
16 | AUUCUCCUAGGUCAUCCGGUG [Fam2.2 aminoacylation ribozyme variant] | 65.5 | 12.2 | 6.71 | 9.8 | 9.16 | 6.42
17 | AUUACCCUGGUCAUCGAGUGC [Fam2.1 aminoacylation ribozyme variant] | 24.9 | 10.9 | 3.92 | 8.98 | 11.4 | 4.71
18 | CAACACUCCAAGCAAUCGGUC [Fam1B.1 aminoacylation ribozyme variant] | 1.67 | 0.956 | 1.13 | 1.77 | 1.02 | 1.06
19 | AAGUUUUCUACUAGUCGCAAG [Fam3.1 aminoacylation ribozyme variant] | 3.09 | 1.79 | 1.99 | 1.86 | 1.67 | 1.51
20 | AAGUCUGCUAAUAGUCACAAG [Fam3.1 aminoacylation ribozyme variant] | 12.6 | 1.3 | 1.24 | 3.73 | 1.95 | 1.25
21 | CGACAUUUCAAGCAAUCGGUC [Fam1B.1 aminoacylation ribozyme variant] | 1.28 | 1.06 | 1.18 | 1.33 | 1.09 | 1.17
22 | CCACAGUUCAAGCAGUCGGUC [Fam1B.1 aminoacylation ribozyme variant] | 0.63 | 1.04 | 0.937 | 0.757 | 1.01 | 1.2
23 | AUUCACAUACGUCAUCGGGUG [Fam2.2 aminoacylation ribozyme variant] | 53.4 | 9.26 | 4.62 | 6.74 | 7.22 | 4.19
24 | AUUACCCUCGUCACCGAGUGA [Fam2.1 aminoacylation ribozyme variant] | 21.2 | 4.63 | 2.33 | 5.5 | 4.34 | 2.74
25 | AUUCACCCAGGUCAGCGGGUG [Fam2.2 aminoacylation ribozyme variant] | 18.4 | 5.61 | 2.93 | 4.34 | 3.76 | 2.73
26 | AAGUUUGCUAAUAGUCGCAUU [Fam3.1 aminoacylation ribozyme variant] | 1.63 | 1.27 | 1.37 | 1.29 | 1.25 | 1.22

Row | Sequence | self-aminoacylation (biotinyl-Phe-oxazolone) | self-aminoacylation (biotinyl-Leu-oxazolone) | self-aminoacylation (biotinyl-Ile-oxazolone) | self-aminoacylation (biotinyl-Trp-oxazolone) | self-aminoacylation (biotinyl-Met-oxazolone) | self-aminoacylation (biotinyl-Val-oxazolone)
27 | CUCCUCCAAACAAUCGGUCUG [Fam1A.1 aminoacylation ribozyme variant] | 2.28 | 0.846 | 1.06 | 2.85 | 0.973 | 0.846
28 | CCACACUUAAGGCAAUCGGUC [Fam1B.1 aminoacylation ribozyme variant] | 0.764 | 1.03 | 1.15 | 1.25 | 0.983 | 0.981
29 | CUACUUCAUACAAUCUGUCUG [Fam1A.1 aminoacylation ribozyme variant] | 0.66 | 0.566 | 0.668 | 0.424 | 0.64 | 0.682
30 | AUUACCGUGGUCCUCGAGUGA [Fam2.1 aminoacylation ribozyme variant] | 29.2 | 4.19 | 2.57 | 4.82 | 4.11 | 3.69
31 | CUACUUCAAACAAUCGGCCUC [Fam1A.1 aminoacylation ribozyme variant] | 11.8 | 1.89 | 1.8 | 7.78 | 1.63 | 1.88
32 | AUUCACCUAGGUCAUACGGUG [Fam2.2 aminoacylation ribozyme variant] | 55.7 | 10.3 | 4.38 | 6.75 | 7.59 | 4.41
33 | AUUACCCUGGUCAUCCAGGGA [Fam2.1 aminoacylation ribozyme variant] | 7.32 | 1.84 | 1.91 | 2.26 | 2.82 | 1.67
34 | CCACACUUCAAGGAAUUGGUC [Fam1B.1 aminoacylation ribozyme variant] | 0.734 | 1.03 | 0.901 | 0.823 | 0.755 | 0.726
35 | AAGUUUUCUGAUAGUCGCAAG [Fam3.1 aminoacylation ribozyme variant] | 2.8 | 1.55 | 1.77 | 1.81 | 1.56 | 1.38
36 | AUUCACCUAGGUCAUCGGGCG [Fam2.2 aminoacylation ribozyme variant] | 13.8 | 10.3 | 4.76 | 5.66 | 7.58 | 4.82
37 | CUACUUCAAACAAUUGAUCUG [Fam1A.1 aminoacylation ribozyme variant] | 0.576 | 0.642 | 0.832 | 0.543 | 0.765 | 0.688
38 | AAGUUUGCUAAUACUUGCAAG [Fam3.1 aminoacylation ribozyme variant] | 0.999 | 0.586 | 0.743 | 0.685 | 0.582 | 0.625
39 | AUUACCGUGGUUAUCGAGUGA [Fam2.1 aminoacylation ribozyme variant] | 59.4 | 10.4 | 4.22 | 11.4 | 10.7 | 5.1
40 | AUUCACCUAGGUCAUCGGGCU [Fam2.2 aminoacylation ribozyme variant] | 37.6 | 12.4 | 5.03 | 6.09 | 8.6 | 4.55
41 | GUACUUCAAACAAUCGGUGUG [Fam1A.1 aminoacylation ribozyme variant] | 10.4 | 3.35 | 2.12 | 10.2 | 2.77 | 1.97
42 | AUUACGCUGGUAAUCGAGUGA [Fam2.1 aminoacylation ribozyme variant] | 18.7 | 5.76 | 2.84 | 7.02 | 5.48 | 2.77
43 | AUUACCCUUGUCAUCUAGUGA [Fam2.1 aminoacylation ribozyme variant] | 26.5 | 7.22 | 3.76 | 8.68 | 7.09 | 3.81
44 | AUUCACCCAGGCCAUCGGGUG [Fam2.2 aminoacylation ribozyme variant] | 34.1 | 6.14 | 3.35 | 5.24 | 3.79 | 3.7
45 | CUACUUCAAAGGAUCGGUCUG [Fam1A.1 aminoacylation ribozyme variant] | 0.753 | 0.912 | 0.925 | 0.738 | 1.04 | 0.902
46 | AUUAGCCUGGUCAUCCAGUGA [Fam2.1 aminoacylation ribozyme variant] | 10.8 | 4.36 | 2.69 | 5.21 | 4.07 | 2.62
47 | AUUACCCGGGGCAUCGAGUGA [Fam2.1 aminoacylation ribozyme variant] | 62.9 | 10.2 | 5.21 | 11.5 | 8.31 | 4.54
48 | UUUCCCCUAGGUCAUCGGGUG [Fam2.2 aminoacylation ribozyme variant] | 96.8 | 15.1 | 6.97 | 10.4 | 11.8 | 6.87
49 | AAGAUUGCUAAUAGUCCCAAG [Fam3.1 aminoacylation ribozyme variant] | 2.39 | 0.778 | 1.28 | 0.756 | 0.597 | 0.756
50 | AUUACCCUGGGCAUCAAGUGA [Fam2.1 aminoacylation ribozyme variant] | 2.16 | 1.73 | 1.16 | 1.64 | 1.76 | 1.37
51 | CUACAUCAAAAAAUCGGUCUG [Fam1A.1 aminoacylation ribozyme variant] | 1.35 | 0.633 | 0.831 | 0.753 | 0.712 | 0.745
